US20260041733A1, “COMBINATION FOR USE IN OPHTHALMOLOGY” (Dompe' farmaceutici SPA, priority 2022, published 2026)

Columns and labels:
male Sprague-Dawley rats = assay: Eye wiping test (ocular discomfort after ocular administration); assay type: in vivo; conditions: 3.5 μg/ml sesamin with 20 μg/ml rhNGF in Vehicle 2
Procedure: An eye wiping test was carried out to evaluate ocular discomfort induced by ocular administration of rhNGF alone or in combination with Sesamin.
The experiments were performed on male Sprague-Dawley rats (300-320 g), Charles River, Italy) housed in the animal care facility of the Department of Pharmacy, University of Naples. Food and water were available ad libitum.
Rats were divided in 4 experimental groups:
Animals were treated with 20 μg/ml of rhNGF in Vehicle 1 (n=8);
Animals were treated with 20 μg/ml of rhNGF and 3.5 μg/ml sesamin in Vehicle 2 (n=8) All compositions tested were prepared immediately before use from lyophilized placebo or rhNGF reconstituted in a volume of 1 mL of the vehicle.
The treatments described above were administered as eye drops 1 time per day, in a volume of 10 μL. Following the application, the eye wiping test was performed.
Animals were placed on a 50×50 cm table for 10 min habituation period. 10 μL of solutions were applied into the left eye of animals and the number of eye wipes was counted for 30 min.
All data are presented as the mean±SEM. Analysis of data were conducted using GraphPad Prism 8. Statistical analysis was performed by two-way ANOVA followed by Tukey's test for multiple comparisons, as appropriate. Statistical significance was set at *p<0.05.

[1] = test system: Dorsal Root Ganglia (DRG) neurons; assay: Levels of autophagy pathway proteins (Western blot) in F11 cells differentiated into DRGs; assay type: cell-based; conditions: 24 h
Procedure: The effect of NGF on autophagy in the presence and absence of sesamin was assessed on Dorsal Root Ganglia (DRG) neurons, involved in the development of NGF sensory side effects, by analysing the impact of the different treatments on the levels of the above proteins involved in autophagy pathway. F11 cells were cultured in Dulbecco's modified Eagle's medium (DMEM, Cat #D6546; Sigma-Aldrich, St. Louis, MO, USA), with 10% fetal bovine serum, 2 mM glutamine (Sigma-Aldrich, USA). Cells were incubated at 37° C. in a humidified atmosphere with 5% CO2. Cells were then seeded at 7000 cells/cm^2 and were maintained in a low serum medium for almost 2 weeks to induce differentiation into DRGs. The complete composition of the low serum medium was: DMEM supplemented 2 mM glutamine, 1% FBS (Sigma-Aldrich, St. Louis, MO, USA). The medium was replaced every 2 days. Immunofluorescence was used to confirm cell differentiation (data not shown). F11 cells maintained in 10% FBS medium were used as control (control, undifferentiated). Morphological and functional analyses were performed after two weeks of treatment with low serum, at complete differentiation of the cells. The undifferentiated control cells underwent the same analysis at 7 days to avoid dramatic cell death due to confluence. The fully differentiated cells were treated with 1 μM rhNGF alone or in combination with 30 nM Sesamin, for 24 h. Control and treated cells were collected and lysed in ice-cold RIPA buffer (Thermo Scientific, USA) with freshly added protease and phosphatase inhibitors. Protein lysates (30 μg) were separated on 4%-12% precast gel using MOPS or MES buffers (Thermo Scientific, USA) depending on the size of the proteins of interest. Then proteins were electroblotted on polyvinyldifluoride membrane (PVDF; Sigma, St Loius, USA) and nonspecific binding sites were blocked in Blocking buffer (Thermo Scientific) for 15 minutes at RT. Afterward, membranes were incubated overnight at 4° C. with the following primary antibodies, diluted in Blocking buffer: rabbit anti-Atg5 1:1000 (Abcam, ab228668, UK), rabbit anti-LC3 1:2000 (Abcam, ab192890, UK), rabbit anti-Beclin 1:2000 (Abcam, ab207612, UK), rabbit anti-P62 1:500 (Abcam, ab91526, UK), rabbit anti-vinculin 1:1000 (Abcam, ab219649, UK) and HRP-conjugated Actin 1:1000 (Cell Signaling, #5125, USA). As secondary antibodies, peroxidase-conjugated anti-rabbit IgG 1:10000 (Abcam, UK) were used. Immunoreactive bands were visualized by ECL (Thermo Scientific, USA), according to the manufacturer's instructions. The relative optical densities of the immunoreactive bands were determined and normalized with respect to those of the anti-Vinculin or anti-Actin (depending on the molecular weight of the analyzed protein and the gel/buffer used), using ImageJ software. The phosphorylated forms were normalized upon the total form.

[2] = topical administration, 200 μg/mL NGF; cited from earlier work
[3] = In-use stability of rhNGF lyophilized formulation (Formulation 6) after reconstitution: oxidized NGF impurity; assay type: physicochemical
Procedure: An in-use stability study of said rhNGF lyophilized formulation (according to Formulation 6) after reconstitution with sesamin-containing reconstitution solvent B or with WFI was carried out as follows.
The tests were performed on said lyophilized formulation reconstituted in solvent B or in WFI, stored at different temperatures (+2/+8° C. or 25° C.-60% Relative Humidity), over 28 days, to verify the possible impurity formation in rhNGF reconstituted liquid formulations, in glass vials.
The impurity was determined as the percentage (w/w) of oxidized NGF in respect of the total NGF comprised in the reconstituted liquid formulation.

patients = conditions: cited from earlier work
[4] = differentiated F11 cells, 1 μM rhNGF alone, vs control (FIG. 1)

Row | Compound | eye discomfort induced by rhNGF (male Sprague-Dawley rats) | autophagy ([1]; 30 nM Sesamin combined with 1 μM rhNGF, vs NGF alone) | levels of the protein in all ocular tissues, included the retina and optic nerve [2] | time of peak increase in ocular tissues after administration [2] [h] | level of P62 (autophagy-specific substrate) [1, 4] | levels of Atg5 [1, 4] | levels of Beclin [1, 4] | levels of LC3-I [1, 4] | levels of LC3-II [1, 4] | NGF oxidation product % ([3]; reconstituted with WFI, +2/+8° C., day 0) [%] | NGF oxidation product % ([3]; reconstituted with WFI, +2/+8° C., day 28) [%] | NGF oxidation product % ([3]; reconstituted with WFI, +25° C./60% Relative Humidity, day 0) [%] | NGF oxidation product % ([3]; reconstituted with WFI, +25° C./60% Relative Humidity, day 28) [%] | NGF oxidation product % ([3]; reconstituted with reconstitution solvent B (sesamin 1.5 μg/mL), +2/+8° C., day 0) [%] | NGF oxidation product % ([3]; reconstituted with reconstitution solvent B (sesamin 1.5 μg/mL), +2/+8° C., day 28) [%] | NGF oxidation product % ([3]; reconstituted with reconstitution solvent B (sesamin 1.5 μg/mL), +25° C./60% Relative Humidity, day 0) [%] | NGF oxidation product % ([3]; reconstituted with reconstitution solvent B (sesamin 1.5 μg/mL), +25° C./60% Relative Humidity, day 28) [%] | primary side effect reported by patients after topical ocular administration (patients; clinical trials or approved indications, mild and transient) | safety of topical administration on the ocular surface (patients; clinical trials)
1 | c1cc2c(cc1[C@H]1OC[C@H]3[C@@H]1CO[C@@H]3c1ccc3c(c1)OCO3)OCO2 [sesamin, 5,5′-[(1S,3aR,4S,6aR)-Tetrahydro-1H,3H-furo[3,4-c]furan-1,4-diyl]bis(2H-1,3-benzodioxole)] | can relieve the eye discomfort | significantly reduced | – | – | – | – | – | – | – | – | – | – | – | – | – | – | – | – | –
2 | rhNGF: recombinant human nerve growth factor, amino acid sequence SEQ ID NO. 1 and/or SEQ ID NO. 2 | – | – | high levels | 6 | decreased | significantly increased | significantly increased | increased levels | increased levels | 4.00 | 4.86 | 4.00 | 6.48 | 3.11 | 4.21 | 3.11 | 5.06 | eye discomfort | safe
